Patent US9260500B2, “Peptide and use thereof” (Takeda Pharmaceutical Company Limited, priority 2009, dated 2016)
Non-standard residues stand in square brackets, D forms with d. *: point of attachment. Ala(cPr) = N[C@@H](CC1CC1)C(=O)O; Cha = N[C@@H](CC1CCCCC1)C(=O)O; Gly(cPr) = N[C@H](C(=O)O)C1CC1; Isobutyryl = CC(C)C(=O)*; Abu = CC[C@H](N)C(=O)O; Aib = CC(C)(N)C(=O)O

Legend:
human Y2 receptor [1] = molecular target: T1, human Y2 receptor (Homo sapiens, UniProt P49146); assay: Receptor Binding Assay (RBA) for Human Y2, [125I]-PYY displacement on hY2R/CHO membrane fraction; settings: IC50 of test compound/IC50 of PYY(3-36) (PYY(3-36) taken as 1)
T1 construct: expressed in transfected cells; membrane fraction
T1 sequence (P49146 1-381): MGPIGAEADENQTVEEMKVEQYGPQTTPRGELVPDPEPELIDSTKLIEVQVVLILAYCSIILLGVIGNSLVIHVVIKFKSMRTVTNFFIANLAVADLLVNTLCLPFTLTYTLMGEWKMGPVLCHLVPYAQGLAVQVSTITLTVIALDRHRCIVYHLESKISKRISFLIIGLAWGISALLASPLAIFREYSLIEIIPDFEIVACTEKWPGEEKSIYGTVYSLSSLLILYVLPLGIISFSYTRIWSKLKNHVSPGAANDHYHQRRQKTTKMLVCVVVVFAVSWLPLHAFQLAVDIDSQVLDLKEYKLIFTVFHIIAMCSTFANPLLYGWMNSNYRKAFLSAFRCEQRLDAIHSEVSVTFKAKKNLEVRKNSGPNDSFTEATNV
Outline: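 Read-out is [125I]-PYY displacement from membranes of CHO/dhfr− cells stably transfected with human Y2R. Membranes were obtained by disrupting cells in a buffer of 10 mM NaHCO3, 5 mM EDTA and protease inhibitors.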

human Y2 receptor [2] = molecular target: T1, human Y2 receptor; assay: Human Y2 Receptor G Protein Binding Assay (GBA), [35S]GTPγS; format: biochemical; settings: EC50 of test compound/EC50 of PYY(3-36) (PYY3-36 taken as 1), hY2R/CHO membrane fraction
Outline: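 Agonism measured as [35S]GTPγS binding, read by GF/C filtration and scintillation counting after 120 min at room temperature, using human Y2 membranes at 1 μg protein/mL in pH 7.4 Tris/MgCl2/NaCl/GDP buffer. Compound serially diluted 100 μM–1 nM; EC50 normalized to PYY(3-36) (ratio = compound/PYY).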

| Substance | RBA IC50 Ratio (human Y2 receptor [1]) | GBA EC50 Ratio (human Y2 receptor [2]) |
| --- | --- | --- |
| Isobutanoyl-[Abu26, Cha27,28,36, Abu30, Aib31]-PYY(25-36) (Isobutyryl-R[Abu][Cha][Cha]N[Abu][Aib]TRQR[Cha]-NH2; SMILES CC[C@H](NC(=O)[C@H](CCCNC(=N)N)NC(=O)C(C)C)C(=O)N[C@@H](CC1CCCCC1)C(=O)N[C@@H](CC1CCCCC1)C(=O)N[C@@H](CC(N)=O)C(=O)N[C@@H](CC)C(=O)NC(C)(C)C(=O)N[C@H](C(=O)N[C@@H](CCCNC(=N)N)C(=O)N[C@@H](CCC(N)=O)C(=O)N[C@@H](CCCNC(=N)N)C(=O)N[C@@H](CC1CCCCC1)C(N)=O)[C@@H](C)O) [compound No. 91] | 20 | 21 |
| Isobutanoyl-[Abu26, Cha27,28,36, Ala(cPr)30, Aib31]-PYY(25-36) (Isobutyryl-R[Abu][Cha][Cha]N[Ala(cPr)][Aib]TRQR[Cha]-NH2; SMILES CC[C@H](NC(=O)[C@H](CCCNC(=N)N)NC(=O)C(C)C)C(=O)N[C@@H](CC1CCCCC1)C(=O)N[C@@H](CC1CCCCC1)C(=O)N[C@@H](CC(N)=O)C(=O)N[C@@H](CC1CC1)C(=O)NC(C)(C)C(=O)N[C@H](C(=O)N[C@@H](CCCNC(=N)N)C(=O)N[C@@H](CCC(N)=O)C(=O)N[C@@H](CCCNC(=N)N)C(=O)N[C@@H](CC1CCCCC1)C(N)=O)[C@@H](C)O) [compound No. 80] | 17 | 12 |
| Isobutanoyl-[Abu26, Cha27,28,36, Gln30, Aib31]-PYY(25-36) (Isobutyryl-R[Abu][Cha][Cha]NQ[Aib]TRQR[Cha]-NH2; SMILES CC[C@H](NC(=O)[C@H](CCCNC(=N)N)NC(=O)C(C)C)C(=O)N[C@@H](CC1CCCCC1)C(=O)N[C@@H](CC1CCCCC1)C(=O)N[C@@H](CC(N)=O)C(=O)N[C@@H](CCC(N)=O)C(=O)NC(C)(C)C(=O)N[C@H](C(=O)N[C@@H](CCCNC(=N)N)C(=O)N[C@@H](CCC(N)=O)C(=O)N[C@@H](CCCNC(=N)N)C(=O)N[C@@H](CC1CCCCC1)C(N)=O)[C@@H](C)O) [compound No. 90] | 19 | 22 |
| Isobutanoyl-[Abu26, Cha27,28,36, Gly(cPr)31]-PYY(25-36) (Isobutyryl-R[Abu][Cha][Cha]NL[Gly(cPr)]TRQR[Cha]-NH2; SMILES CC[C@H](NC(=O)[C@H](CCCNC(=N)N)NC(=O)C(C)C)C(=O)N[C@@H](CC1CCCCC1)C(=O)N[C@@H](CC1CCCCC1)C(=O)N[C@@H](CC(N)=O)C(=O)N[C@@H](CC(C)C)C(=O)N[C@H](C(=O)N[C@H](C(=O)N[C@@H](CCCNC(=N)N)C(=O)N[C@@H](CCC(N)=O)C(=O)N[C@@H](CCCNC(=N)N)C(=O)N[C@@H](CC1CCCCC1)C(N)=O)[C@@H](C)O)C1CC1) [compound No. 88] | 25 | 16 |
| Isobutanoyl-[Abu26, Cha27,28,36, His30, Aib31]-PYY(25-36) (Isobutyryl-R[Abu][Cha][Cha]NH[Aib]TRQR[Cha]-NH2; SMILES CC[C@H](NC(=O)[C@H](CCCNC(=N)N)NC(=O)C(C)C)C(=O)N[C@@H](CC1CCCCC1)C(=O)N[C@@H](CC1CCCCC1)C(=O)N[C@@H](CC(N)=O)C(=O)N[C@@H](Cc1c[nH]cn1)C(=O)NC(C)(C)C(=O)N[C@H](C(=O)N[C@@H](CCCNC(=N)N)C(=O)N[C@@H](CCC(N)=O)C(=O)N[C@@H](CCCNC(=N)N)C(=O)N[C@@H](CC1CCCCC1)C(N)=O)[C@@H](C)O) [compound No. 92] | 22 | 20 |
